In experiment [1] the target is murine vascular endothelial adhesion molecule-1 (VCAM-1) (murine) (UniProt P29533). Description: bEnd.3 cells treated with coaguligand, detected with 125I-labeled 10H10; attributed to constitutive VCAM-1 expression.
For experiment [2] the target is unchanged. The experiment can be described thus: cell-based or functional assay.
The target in experiment [3] is anti-VCAM-1•tTF coaguligand (anti-VCAM-1 antibody MK2.7 covalently linked through SMPT to truncated tissue factor, one antibody to one tTF, Mr 180,000) (human) (UniProt P13726). Description: 125I-labeled 10H10 bound to anti-VCAM-1•tTF-treated, IL-1alpha-activated bEnd.3 cells, at saturation.

The text below walks through data of patent US20050089523A1.

Sequence of UniProt P29533 (P29533 25-739): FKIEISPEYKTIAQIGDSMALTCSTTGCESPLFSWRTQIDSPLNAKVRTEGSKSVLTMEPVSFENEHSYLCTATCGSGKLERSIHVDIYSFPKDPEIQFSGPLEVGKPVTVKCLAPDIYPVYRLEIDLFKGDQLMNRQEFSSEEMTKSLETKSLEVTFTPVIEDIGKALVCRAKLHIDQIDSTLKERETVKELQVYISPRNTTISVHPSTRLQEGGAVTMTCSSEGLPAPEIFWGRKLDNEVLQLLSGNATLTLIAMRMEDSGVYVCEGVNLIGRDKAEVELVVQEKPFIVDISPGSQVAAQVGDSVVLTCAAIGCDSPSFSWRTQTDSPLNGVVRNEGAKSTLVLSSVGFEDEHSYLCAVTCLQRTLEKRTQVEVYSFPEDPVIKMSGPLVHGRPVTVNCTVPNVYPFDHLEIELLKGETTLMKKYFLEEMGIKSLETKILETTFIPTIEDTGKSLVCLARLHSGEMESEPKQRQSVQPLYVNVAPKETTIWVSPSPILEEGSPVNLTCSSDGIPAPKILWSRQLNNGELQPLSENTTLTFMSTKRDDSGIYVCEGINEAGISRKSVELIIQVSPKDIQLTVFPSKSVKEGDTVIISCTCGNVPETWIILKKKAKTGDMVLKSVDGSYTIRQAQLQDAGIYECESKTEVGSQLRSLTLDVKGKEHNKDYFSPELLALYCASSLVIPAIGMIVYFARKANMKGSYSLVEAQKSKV

In experiment [1], “anti-VCAM-1•tTF coaguligand (anti-VCAM-1 antibody MK2.7 covalently linked through SMPT to truncated tissue factor, one antibody to one tTF, Mr 180,000) (from UniProt P13726 33-251)” registered a binding to unstimulated cells relative to activated cells of 0.5. In experiment [2], this substance came in with a Generation of Factor Xa by anti-VCAM-1•tTF bound to intact, IL-1α-stimulated bEnd.3 cells (ng per 10^4 cells per 60 min.) of 3.17; a Generation of Factor Xa by anti-VCAM-1•tTF bound to intact, unstimulated (control) bEnd.3 cells (ng per 10^4 cells per 60 min.) of 1.64; a Generation of Factor Xa by anti-VCAM-1•tTF bound to saponin-permeabilized, IL-1α-stimulated bEnd.3 cells (ng per 10^4 cells per 60 min.) of 98.8; a Generation of Factor Xa by anti-VCAM-1•tTF bound to saponin-permeabilized, unstimulated (control) bEnd.3 cells (ng per 10^4 cells per 60 min.) of 49.2.
In experiment [3], “10H10, mouse monoclonal antibody against human tissue factor” showed an amount of anti-TF antibody bound at saturation of 8.7 fmol and a molecules of anti-TF antibody bound per cell (molecules per cell) of 540000.
